Experimental data reported in publication PMC10899256, “TBC1D23 mediates Golgi-specific LKB1 signaling” (Nature Communications, 2024).
One block for each binder: values may come before it.

What was measured:
[1] = target: T1, purified TBC1D23 PH domain (545–684) (human, UniProt Q9NUY8-2 545-684); assay: ITC; LKB1-LFa motif peptides (1.0 mM) titrated into TBC1D23 PH domain (50 µM) at 25 °C; 100 mM Tris pH 8.0, 500 mM NaCl, 5% v/v glycerol; conditions: both partners purified
T1 construct: Used as prey for GST-tagged baits on glutathione beads and in ITC, so the GST was probably removed

[2] = target: T2, purified GST-TBC1D23 PH domain (545–684) (human, UniProt Q9NUY8-2 545-684); assay: pull-down; recombinant proteins: MBP or MBP-tagged LKB1 CRD-LFa held, purified GST-TBC1D23 PH as prey; same procedure as for GST-tagged proteins (50 mM Tris pH 8.0, 500 mM NaCl, 0.05% Triton X-100, 4 °C 1 h); conditions: both partners purified
T2 construct: also called purified TBC1D23 PH
T2 sequence (Q9NUY8 560-699): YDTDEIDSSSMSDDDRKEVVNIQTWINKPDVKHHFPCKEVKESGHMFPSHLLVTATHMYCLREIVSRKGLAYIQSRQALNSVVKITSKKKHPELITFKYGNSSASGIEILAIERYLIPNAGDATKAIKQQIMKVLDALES

T1 sequence (Q9NUY8 560-699): as above

B1: LKB1 LFa peptide WT (peptide)
peptide: GADEDEDLFDIEDDIIYTQD
notes: LKB1 (STK11) LFa motif peptide; also called LKB1-LFa motif peptide; LKB1-LFa WT
- Ka [1]: 1.25e+06 M⁻¹
- Kd [1]: 800 nM
- stoichiometry N [1]: 1

B2: LKB1 LFa peptide F354A (peptide)
peptide: GADEDEDLADIEDDIIYTQD
notes: LKB1 (STK11) LFa motif peptide with F354A; also called LKB1 F354A; LKB1-LFa mutants
- fold by which the affinity of LKB1 WT is higher [1]: ~3 fold

B3: LKB1 LFa peptide F354L (peptide)
peptide: GADEDEDLLDIEDDIIYTQD
notes: LKB1 (STK11) LFa motif peptide with F354L, a mutation reported in Peutz–Jeghers patients and present in gnomAD; also called LKB1 F354L; LKB1-LFa mutants
- fold by which the affinity of LKB1 WT is higher [1]: ~3 fold

Next, values leading:

- binding result [2]: binds
B4: MBP-LKB1 CRD-LFa WT (domain or fragment, human, UniProt Q15831 347-433, looked up)
chain: ADEDEDLFDIEDDIIYTQDFTVPGQVPEEEASHNGQRRGLPKAVCMNGTEAAQLSTKSRAEGRAPNPARKACSASSKIRRLSACKQQ
notes: LKB1 (STK11) CRD, residues 347–433; also called LKB1 WT; LKB1 CRD (347–433)

- binding result [2]: binds
B5: MBP-LKB1 CRD-LFa F354L (domain or fragment, human, UniProt Q15831 347-433, looked up)
chain: ADEDEDLLDIEDDIIYTQDFTVPGQVPEEEASHNGQRRGLPKAVCMNGTEAAQLSTKSRAEGRAPNPARKACSASSKIRRLSACKQQ
notes: LKB1 (STK11) CRD, residues 347–433, with F354L (reported in Peutz–Jeghers patients, present in gnomAD); also called LKB1 F354L

- binding result [2]: binds
B6: MBP-LKB1 CRD-LFa F354A (domain or fragment, human, UniProt Q15831 347-433, looked up)
chain: ADEDEDLADIEDDIIYTQDFTVPGQVPEEEASHNGQRRGLPKAVCMNGTEAAQLSTKSRAEGRAPNPARKACSASSKIRRLSACKQQ
notes: LKB1 (STK11) CRD, residues 347–433, with F354A; also called LKB1 F354A
